{"source": "patent US20250152742A1", "about": "“COMPOSITIONS AND METHODS FOR NEUROLOGICAL DISEASES” (Trames Bio, Inc., priority 2022, published 2025)", "molecules": {"B1": {"name": "CODA535: engineered receptor: L131T, S172D in SEQ ID NO: 33 (protein)", "chain": "MRCSPGGVWLALAASLLHVSLQGEFQRKLYKELVKNYNPLERPVANDSQPLTVYFSLSLLQIMDVDEKNQVLTTNIWLQMSWTDHYLQWNVSEYPGVKTVRFPDGQIWKPDILLYNSADERFDATFHTNVTVNSSGHCQYLPPGIFKSSCPMDLKNFPMDVQTCKLKFGSWDYGGWSLDLQMQEADISGYIPNGEWDLVGIPGKRSERFYECCKEPYPDVTFTVTMRRRMGYYLIQMYIPSLLIVILSWISFWINMDAAPARVGLGITTVLTMTTQSSGSRASLPKVSYVKAIDIWMAVCLLFVFSALLEYAAVNFVSRQHKELLRFRRKRRHHKSPMLNLFQEDEAGEGRFNFSAYGMGPACLQAKDGISVKGANNSNTTNPPPAPSKSPEEMRKLFIQRAKKIDKISRIGFPMAFLIFNMFYWIIYKIVRREDVHNQ", "modifications": "synthetic sequence of chimeric LGIC"}}, "tested_on": "engineered chimeric receptor SEQ ID NO: 33 and its mutants (human α7-nAChR ligand binding domain / human GlyRα1 ion pore domain) in Lenti-X 293T cells", "test": "YFP fluorescence quenching anion reporter plate reader assay (percent quench, EC50)", "format": "cell-based", "conditions": "for YFP fluorescence quenching using CNL001 (percent quench): receptor named in row", "method_in_brief": "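Lenti-X 293T cells co-expressing an anion-quenchable YFP were transiently transfected with receptor DNA, then ligand was added in NaI-substituted buffer (pH 7.2) after 30 min at 37 °C. Fluorescence was read about 2 min; percent quench = mean of last 10 s over 15 s pre-ligand baseline.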"}
{"molecule": "B1", "values": [{"measurement": "YFP fluorescence quenching using CNL001 (percent quench)", "setting": "1 nM CNL001, first column so headed", "result": 8.736, "unit": "%"}, {"measurement": "YFP fluorescence quenching using CNL001 (percent quench)", "setting": "1 nM CNL001, second column so headed", "result": 24.572, "unit": "%"}, {"measurement": "YFP fluorescence quenching using CNL001 (percent quench)", "setting": "10 nM CNL001, first column so headed", "result": 60.552, "unit": "%"}, {"measurement": "YFP fluorescence quenching using CNL001 (percent quench)", "setting": "10 nM CNL001, second column so headed", "result": 63.09, "unit": "%"}, {"measurement": "YFP fluorescence quenching using TC-6683 (percent quench)", "setting": "30 nM TC-6683", "result": "−29.362", "unit": "%"}, {"measurement": "YFP fluorescence quenching using CNL001 (percent quench)", "setting": "50 nM CNL001, first column so headed", "result": 73.242, "unit": "%"}, {"measurement": "YFP fluorescence quenching using CNL001 (percent quench)", "setting": "50 nM CNL001, second column so headed", "result": 73.889, "unit": "%"}, {"measurement": "YFP fluorescence quenching using ABT-126 (percent quench)", "setting": "50 nM abt (ABT-126)", "result": "−11.09", "unit": "%"}, {"measurement": "YFP fluorescence quenching using CNL001 (percent quench)", "setting": "100 nM CNL001, first column so headed", "result": 76.147, "unit": "%"}, {"measurement": "YFP fluorescence quenching using CNL001 (percent quench)", "setting": "100 nM CNL001, second column so headed", "result": 76.21, "unit": "%"}, {"measurement": "YFP fluorescence quenching (percent quench)", "setting": "100 nM CNL002", "result": 1.23, "unit": "%"}, {"measurement": "YFP fluorescence quenching using ABT-126 (percent quench)", "setting": "100 nM abt (ABT-126)", "result": "−10.37", "unit": "%"}, {"measurement": "YFP fluorescence quenching using AZD-0328 (percent quench)", "setting": "100 nM azd0328", "result": "−7.02", "unit": "%"}, {"measurement": "YFP fluorescence quenching using TC-6683 (percent quench)", "setting": "300 nM TC-6683", "result": "−28.954", "unit": "%"}, {"measurement": "YFP fluorescence quenching using ABT-126 (percent quench)", "setting": "300 nM abt (ABT-126)", "result": "−4", "unit": "%"}, {"measurement": "YFP fluorescence quenching using AZD-0328 (percent quench)", "setting": "300 nM azd0328", "result": "−0.48", "unit": "%"}, {"measurement": "YFP fluorescence quenching using CNL001 (percent quench)", "setting": "1 uM CNL001, first column so headed", "result": 78.988, "unit": "%"}, {"measurement": "YFP fluorescence quenching using CNL001 (percent quench)", "setting": "1 uM CNL001, second column so headed", "result": 78.818, "unit": "%"}, {"measurement": "YFP fluorescence quenching (percent quench)", "setting": "1 uM CNL002", "result": 35.77, "unit": "%"}, {"measurement": "YFP fluorescence quenching using ABT-126 (percent quench)", "setting": "1 uM abt (ABT-126)", "result": 4.05, "unit": "%"}, {"measurement": "YFP fluorescence quenching using TC-6683 (percent quench)", "setting": "3 uM TC-6683", "result": "−23.708", "unit": "%"}, {"measurement": "YFP fluorescence quenching (percent quench)", "setting": "10 uM ach (acetylcholine)", "result": "−12.24", "unit": "%"}, {"measurement": "YFP fluorescence quenching (percent quench)", "setting": "30 uM CNL002", "result": 68.29, "unit": "%"}, {"measurement": "YFP fluorescence quenching using TC-6683 (percent quench)", "setting": "30 uM TC-6683", "result": "−23.431", "unit": "%"}, {"measurement": "YFP fluorescence quenching using AZD-0328 (percent quench)", "setting": "30 uM azd0328", "result": 70.16, "unit": "%"}, {"measurement": "YFP fluorescence quenching using TC-6683 (percent quench)", "setting": "100 uM TC-6683", "result": "−18.324", "unit": "%"}, {"measurement": "YFP fluorescence quenching (percent quench)", "setting": "100 uM ach (acetylcholine)", "result": "−26.23", "unit": "%"}, {"measurement": "YFP fluorescence quenching (percent quench)", "setting": "1 mM ach (acetylcholine)", "result": "−1.16", "unit": "%"}, {"measurement": "YFP fluorescence quenching (percent quench)", "setting": "3 mM ach (acetylcholine)", "result": 2.97, "unit": "%"}, {"measurement": "YFP fluorescence quenching using Facinicline, 30 nM fac", "setting": "ligand Facinicline 30 nM", "result": "−21.36"}, {"measurement": "YFP fluorescence quenching using Facinicline, 300 nM fac", "setting": "ligand Facinicline 300 nM", "result": 4.17}, {"measurement": "YFP fluorescence quenching using Facinicline, 30 uM fac", "setting": "ligand Facinicline 30 uM", "result": 65.94}, {"measurement": "YFP fluorescence quenching using TC-6987, 1 uM tc6987", "setting": "ligand TC-6987 1 uM", "result": "−21.8"}, {"measurement": "YFP fluorescence quenching using TC-6987, 10 uM tc6987", "setting": "ligand TC-6987 10 uM", "result": "−27.08"}, {"measurement": "YFP fluorescence quenching using TC-6987, 500 uM tc6987", "setting": "ligand TC-6987 500 uM", "result": "−21.56"}]}
